Data as given in the nanobody polyreactivity screen of Harvey et al. (2022).

Assay: yeast display, Sf9 membrane polyspecificity reagent, FACS + sequencing; frameworks hold sequencing errors
Procedure, shortened: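 Nanobodies came from a synthetic yeast display library in Saccharomyces cerevisiae BJ5465, induced with galactose for 36–48 hours and stained for 1 hour at 4 °C with 10% biotinylated, detergent-solubilized Sf9 membrane reagent. Cells were enriched on streptavidin microbeads and then FACS-sorted, with low and high (top ~1%) gates set on anti-HA fluorescence for expression and streptavidin fluorescence for reagent binding. Each polyreactivity label reflects the gate a clone came from. Genes were amplified by colony PCR, sequenced by MiSeq 2 × 250 and filtered by CDR length.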

Sequence | polyreactivity (PSR sort gate)
QVQLVDSGGGLVQAGGSLRLSCAASGSTFDVYAMGWYRQAPGKERELVAVINTSGTRTYYADSVKGRFTISRDNAKNTVYLQMNSLKPEDTEVYYCNAGGHLEMNYWGQGTQVTVSS | low polyreactivity
LVQLQESGGGLVQACGSLRLSCAASGDIFDADIMGWYRQAPGKERELVASITDGGSTNYADSVKGRFTISRDNAKNTVYLPMNSLKPEDTAVYYCAKPATYYELDYWGQGTQVTVSS | low polyreactivity
QVQLVESGGGLVQAGGRLRLSCAASGSIFDSYVMGWYRQAPGKERELVAAITYSGGSTYADSVKGRFTISRDNAKNTVYLEMNSLKPEDTAVYYCAAASYFYLYLLEDYWGQRTQVTVSS | low polyreactivity
QVQLVESGGGLVQAGGSLRLSCAASGSIFSPNAMGWYRQAPGKERELVAGISWSGDGTYYADSVKGRFTISRDNAKNTVYLQMNSLKPEDTAVYYCAARFGRYSHRYYYWGQGTQVTVSS | high polyreactivity
QVQLVESGGGLVQAGGSLRLSCAASGFTFIYNAMGWYRQAPGKERELVAAISRGASTNYADSVKGRFTISRDNAKNTVYLQMNSLKPEDTAVYYCAKRTTRLAPYDYWGQGTQVTVSS | high polyreactivity
QVQLVESGGGLVQAGCSLRLSCAASGRIFDNYVMGWYRQAPGQERELVAAISSGGGTYYADSVTGRFTISRDNAKNTVYLQMNSLKPEDTAVYYCAKRRVYDRSFGRYDYWGQGTQVTVSS | low polyreactivity
QVQLVESGGGLVQAGGSLRLSCAASGSIFKIYAMGWYRQAPGKERELVAAITINGGSTYYADSVKGRFTISRDNAKNTVYLLMNSLKPEDTAVYYCAADFFHRAGWYFAYGHWGQGTQVTVSS | low polyreactivity
QVQLVESGGGLVQAGGSLRLSCAGSGSISYFNAMGWYRQAPGKERELVAAISYSGGSTYYADSVKGRFTISRDNAKNTVYLQMNSLKPEDTAVYYCAADRLIGWRKTYYYWGQGTQVTVSS | high polyreactivity
QVQLVESGGGLVQAGGSLRLSCAASGRIFVLYAMGWYRQAPGKERELVAAISTSGGSTYYADSVKGRFTISRDNAKNTYYLQMNSLKPEDTAVYYCAADRSARFLFIQYYPYGMDYWGQGTQVTVSS | high polyreactivity
QVQLVESGGGLVQAGGSLRLSCAASGSTFNIYAMGWYRQAPGKERELVATISWTGGRTFYADSVKGRFTISRDNAKNTVYLQMNSLKPEDTAVYYCNKASTGGYDYWGQGTQVTVSS | high polyreactivity
QVQLVESGGGLVQAGGSLRLSCAASGFTFSSYAMGWYRQAPGKERELVAAITQSGGRTYYADSVKGRFTISRDNAKNTVYLQMNSLKPEDTAVYYCAADVPLWYDYGGQGTQVTVSS | low polyreactivity
QVQLVESGGGLVQAGGSLRLSCAASGITFYWYAMGWYRQAPGKERELVASITGNGGGTSYADSVKGRFTISRDNAKNTVYLQMNSLKPEDTAVYYCNTSVGGKEYDSWGQGTQVTVSS | low polyreactivity
QVQLVESGGGLVQAGGSLRLSCAASGRIFVYYAMGWYRQAPGKEREFVAAITDSGGGTYYADSVKGRFTISRDNAKNTVYLQMNSLKPEDTAVYYCAKRFGQYRYPYDYWGQGTQVTVSS | high polyreactivity
QVQLVESGGGLVQAGGSLRLSCAASGSILIGNAMGWYRQAPGKERELVAGISSDVSTNYADSVKGRFTISRDNAKNTVYLQMNSLNPEDTAVYYCNKDAGPFQEHLYSWGYDSWGQGTQVTVSS | low polyreactivity
QVQLVESGVGLVQAGGSLSLSCAASGRTFYVNAMGWYRQAPGKERELVARITSGGSTYYGDSVKGRFTISRDNAKNTVYLQMNSLKPEDTAVYYCAKKYIGYQEGIHSTRRYDYWGQGTQVTVSS | low polyreactivity
QVQLVESGGGLVQAGGSLRLSCAASGSIFARYAMGWYIQAPGKEREFVAAISRSGGSTYYADSVKGRFTISRDNAKNTVYLQMNSLKPEDTAVYYCAARGGTKYDYWGQGTQVTVSS | high polyreactivity
QDQLVESGGGLVQAGGSLRLSCAASGSTFSYNMGWYRQAPGKERELVAAISGSGGSTYADSVKGRFTISRDNAKNTVYLQMNSLKPEDTAVYYCATVRYWVHEYGYWGQGTQVTVSS | high polyreactivity
QVQLVESGGGLVQAGGSLRLTCAASGSIFLDYAMGWYRQAPAKERELVAGITISGGSTYYADSVKGRFTISRDNAKNTVYLQMNSLKPEDTAVYYCAKVAPRSSSSQEYYYWGQGTQVTVSS | low polyreactivity
QVHLVESGGGLVQAGGSHRLSCASSGFIFYFYTMGWYRQAPGKERELVAGITWLDGSTYYADSVKGRFTISRDNAKNTVYLQMNSLKPEDTAVYYCAVDYDLVVSPYYYWGQGTQVTVSS | low polyreactivity
QVPLVESGGGLVQAGGSLRLSCAASGSIFAPYTMGWYRQAPGKERELVAAISVTTGITYYADTLKGRFTISRDNAKNTVYLQMNSLKPEDTGVYYCAAELYKSLWYEYWGQGTQVTVSS | low polyreactivity
QVHLVESGGGLVQAGGSLRLSCAASGSIFALYAMGWYRQAPGKERELVARISYSGGRTYYADSVKGRFTISRDNAKNTVYLQMNSLKPEDTAVYYCATRSFKWSFVGYDYWGQGTQVTVSS | high polyreactivity
QVQLVESGGGLVQAGGSLRLSCAASGSIFAANAMGWYRQAPGKERELVAAISRSGNTYYADSVKGRFTISRDNAKNTVYLQMNSLKPEDTAVYYCAARRDAYGRTYGYWGQGTQVTVSS | high polyreactivity

Sequence | polyreactivity (PSR sort gate)
QVQLVESGGGIVQAGGSLRLSCAASGSTFLYYAMGWYRQAPGKERELVAAISSGGSTYYADSVKGRFTISRDNAKNTVYLQMNSLKPEDTAVYYCAAVRPGYVAYYYWGQGTQVTVSS | high polyreactivity
QVQLVESAVGLVQAGGSLRLSCAASGRIFYFNAMGWYRQAPGKERELVAAISSSGTTYYADSVKGRFTISRDNAKNTVYLQMNSLKPEDTAVYYCAAGYYGHDPRNRYRYNYWGQGTQVTVSS | high polyreactivity
QVQLQESGGGLVQAGGSPRLSCAESDNIYPDSVICWYRQAPGKERELVATIGFGATTNYADSVKGRLTISRDNAKNTVYLQMNSLKPEDTAVYYCAADPLNYEYFCYWGQGTQVTVSS | low polyreactivity
QVQLVESGGGLVQAGGSLRLSCAASGFTSYGYAMGWYRQAPGKERELVAAISRSGGSTYYADSVKGRFTISRDNAKNTVYLQMNSLKPEDTAVYYCAVAVGREYVYRYYYWGQGTQVTVSS | high polyreactivity
QVQLVESGGGLVQAGGSRRLSCAPSGKIFGSNAMGSYRQAPGKERELVAAISKSCGRTYYADSVKGRFTISRDNAKNTVYLQMNCLKPEDSAVYYCGAYDGYYEFDYWGQGTQVPVSS | low polyreactivity
QVQLVESGGGLVQAAGSLRLSCAASGSIFVSYAMGWYRPAPWKEREFVATINYSGGSSYYADSVKGRFTISRDNAKNTVYLQMNSLKPEDTAVYYCAARPYHHGYWLNYGYWGQGTQVTVSS | high polyreactivity
QVQLVESGGGLVQARGSLRLSCAASGRIFPGYAMGWYRQAPGKERELVAGISNDASTNYADSVKGRFTISRDNAKNTVYLQMNSLKPEDTAVYYCAAEISSLSFPRYDYWGQGTQVTVSS | low polyreactivity
QVQLVESGGGLVQAGGSLRLSCAASGRIFPVNTMGWYREAPGKERELVAAITSGGGTYYADSVKGRFTISRDNAKNTVYLQMNSLKPEDTAVYYCNAPEGRKPYDSWGQGTQVTVSS | low polyreactivity
QVQLVESGGGLVQAGGSLRLSCAASGRTFKKYAMGWFRQAPGKERELVAAITGSGGSTYYADSVKGRFTISRDNAKNTVYLQMNSLKPEDTADYYCAAYAYGVWHSQDGGNYWGQGTQVTVSS | low polyreactivity
QVQLVESGGGLVQAGGSLRLSCAASGHTFLEYAMGWYRQAPGKESELVASISFSAGSTYYADSVKGRFTISRDNAKNTVYLQLNSLKPEDTALYYCNAEYLYDYYYYWPYWFEFDYWGQGTQVTVSS | high polyreactivity
QVQLEESGGGLVQAGGSLRLSCAASGGTFGQYTMGWYRQAPGKERELVAAISTRGGSTNYADSVKGRFTISRDNAKNTVYLQMNSLKPEDTAVYYCAAKDKGRYYENVGRRGLDYWGQGTQVTVSS | high polyreactivity
QVQLVESGGGLVQAGGSLRLSCAASGRIFGRYAMGWYRQAPGKEREFVATITSRGGNTYYADSVKGRFTISRDTAKNSVYLQMNSLKPEDTAVYYCNADYLWFNFYYWGQGTQVTVSS | low polyreactivity
QVQLVESGGGLVQAGGSLRLSCAASGRTFSSYVMGWYRQAPGKERELVASISRRGGSTYYADSVKGRFTISRDNAKNTVYLQMNSLKPEDTAVYYCNADLRGYGRGTDQYTFDYWGQGTQVTVSS | high polyreactivity
QVQLVESGGGLVQAGGSLRLSCAASGRILSYYAMGWYRQAPGKERELVAVIRRGASTYADSVKGRFTISRDNAKNTVYLQMNSLKPEDTAVYYCNADRVVGLSATKYGYWGQGTQVTVSS | low polyreactivity
QVQLVESGGGLVQAGGSLRLSCAASGSTLVLNALGWYRQAPGKERELVAAITISGDTTYYADSVKGRFTISRDNAKNTVYLQMNSLKPEDTAVYYCAAVVSTVDGMEYWGQGTQVTVSS | low polyreactivity
QVQLVESGGCLVQAGGSLRLSCAASRRIYYYTMGWYRQPPGKERELGATITSSGSSTYYADSVKGRFTISRDNAMNTVYLQMNSLKPEDTAVYYCAAGDRRYQRRYYYWGQGTQVTVSS | high polyreactivity
QVQLVESGGGLVQAGGSLRLSCAASGSTFYPYAMGWYRQAPGKERELVAAINLRADSTNYADSVKGRFTISRDNAKNTVYLQMNSLKPEDTAVYYCAARVSYRSGRRPLWAYNSWGQGTQVTVSS | high polyreactivity
QVQLVESGGGLVQAGGILRLSCAASGSTFWPYAMGWYRQAPGKERELVATNRGGGTSTYYADSVKGRFTISRDNAKNTVYLQMNSLKPEDTAVYYCAARGFFTGSYPGYYYWGLGTQVTVSS | high polyreactivity
QVQLVESGGGLVQAGRSLRLTCAASGRIFRRYAMGWSRQAPGKERELVAAIRTSGGNTYYADSVKGRFTISRDNAKNTVYLQMNSLKPEDTAVYYCAAERGRLVAIASDYWGQGTQVTVSS | high polyreactivity
QVQLVESGGGLVQAGGSLRLSCAASGITSDFNAMGWYRQAPGKERELVAITWNGGSTYYADSVKGRFTISRDNAKNTVYLQMNSLKPEDSAVYYCAARYRRYNRIYDYWGQGTQVTVSS | high polyreactivity
QVQLVESGGGLVQAGGSLRLSCAASGFTFSQYVMGWSRQAPGKERELVASITGKGGSTRYADSVKGRFTISRDNAKNTVYLQMNSLKQEDTAVYYCAARYVYFRWGSFDYWGQGTQVTVSS | high polyreactivity
